This is an account of results in patent US7271245B2, “Methods and compositions for inhibition of metastasis” (The Scripps Research Institute, priority 2004, dated 2007).

The subject of one test is integrin αvβ3. Kind of test: Flow cytometry, scFv binding to human tumor cell panel. As to the method: FIGS. 1A, 1B, 1C. Patient derived scFvs Bc-12 and Bc-15 recognize tumor cell integrin αvβ3 in a cation and activation dependent manner. Flow cytometric analyses in TBS with or without 1 mM Ca^2+, 1 mM Mg^2+, or 0.2 mM Mn^2+ as indicated. Binding of soluble scFv detected after incubation with anti-Flag M2 murine mAb followed by FITC-anti mouse F(ab′)2. (A) scFv binding to human melanoma cells (M21: αvβ3 plus other αv integrins) (M21-LIIb: αIIbβ3, no αv integrins) or lung adenocarcinoma cells (UCLA-P3: αv integrins, no β3 integrin). (B) scFv binding to M21 melanoma cells. (C) scFv binding to variants of MDA-MB 435 human breast cancer cells that lack (β^3−) or express αvβ3 either in a non-activated (β3WT, ParentCo) or activated form (β3D723R, Bone, Lung, and BMS metastatic cancer cells isolated from breast cancer patient blood).
Flow cytometry. scFv binding to human tumor cells was analyzed by flow cytometry, initially with cloned scFv phage and then with purified scFv protein. Per sample, 2×10^5 tumor cells were blocked with goat serum and incubated either with scFv phage (2-5×10^10) (1 h at RT) followed by mouse anti-M13 mAb (Serotec) (30 min on ice) and goat FITC-anti mouse (Pierce) (30 min on ice), or with purified scFv (1.25 to 40 μg/ml, routinely 10 to 15 μg/ml) (45 min on ice), followed by mouse anti-FLAG mAb M2 (Sigma) (30 min on ice) and goat FITC-anti mouse. Binding/washing buffer was TBS with or without divalent cations (1 mM Ca^2+, 1 mM Mg^2+, 0.2 mM Mn^2+). Alternatively, tumor cells were washed in 10 ml of plasma (prepared freshly from human blood anticoagulated with 50 nM D-Phe-D-Pro-D-arginyl chloromethyl ketone, PPACK, Felding-Habermann et al., J. Biol. Chem. 271: 5892-5900, 1996), resuspended in plasma and then incubated sequentially, without washing, with purified scFv (45 min on ice), followed by anti-FLAG M2 (30 min on ice) and FITC-anti mouse (30 min on ice). All samples were counter stained with propidium iodide (PI) and analyzed on a Becton-Dickinson FACScan, with live gate set to exclude PI positive cells.
To generate therapeutic reagents that specifically react with activated αvβ3, a phage display library of single chain antibody fragments (scFv) was exploited. This library was derived from cancer patient blood lymphocyte cDNA libraries and allowed us to test the hypothesis that the expressed immune repertoire contains antibodies that recognize integrin αvβ3, and distinguish between its activated and non-activated forms. Mao et al., Proc. Natl. Acad. Sci. U.S.A 96: 6953-6958, 1999. A subtractive panning approach was designed based on variants of MDA-MB 435 human breast cancer cells. […] Apparently, these cells are selected during metastasis, as variant cells isolated from lung and bone metastases in immune deficient mice express constitutively activated αvβ3. To establish a cell population that uniformly expresses non-activated αvβ3, MDA-MB 435 parental cells were cloned by limiting dilution, and clones tested for αvβ3 functionality. […] A cell line, MDA-MB 435 Lung-Lung, was established which expressed αvβ3 in a constitutively activated form. This variant stems from a lung metastase of an immune deficient mouse whose mammary fat pad had been injected with parental MDA-MB 435 cells. Felding-Habermann et al., Proc. Natl. Acad. Sci. U.S.A 98: 1853-1858, 2001; Rolli et al., Proc. Natl. Acad. Sci. U.S.A 100: 9482-9487, 2003. To enrich for the ability to colonize the lung from the blood stream, the Lung variant was subsequently injected intravenously, and tumor cells cultured 3 weeks later from the excised lung. Parent Combo cells were used to subtract the scFv phage library to eliminate antibodies against antigens shared by the MDA-MB 435 cell variants. […]
(In general: Flow cytometry measures light scatter and fluorescence of single cells or particles in a stream.)

The subject of test [1] is matrix deprived BMS breast cancer cells. The test can be described thus: Apoptosis of matrix deprived breast cancer cells. It is filed as cell-based, human. The note with it: 3.7 μM scFv, ultra-low-adhesion plates, 20 hrs. As to the method:
FIGS. 3A, 3B, 3C, 3D, 3E. scFv Bc-12 and Bc-15 inhibit αvβ3 mediated adhesive breast cancer cell functions. (A) Adhesion of BMS human breast cancer cells to fibrinogen (Fg), vitronectin (VN) or type I collagen (Col I) in the absence or presence of 3 μM Bc-12, Bc-15 or their RGE mutants Mut-12, Mut-15, compared to 200 μM GRGDSPK peptide (SEQ ID NO: 11). Protein coating concentrations: 10 μg/ml (VN, Col I) or 20 μg/ml (Fg). Adhesion time: 30 min at 37° C. (B) Effect of scFvs on haptotactic BMS cell migration toward a fibrinogen substrate (16 hrs at 37° C. in transwell chambers with or without 2 μM Bc-12, Bc-15 or their RGE mutants Mut-12 or Mut-15, compared to 200 μM GRGDSPK peptide) (SEQ ID NO: 11). (C) Effect of scFvs on breast cancer cell arrest during blood flow. Metastatic BMS cells, labeled with hydroethidine, were suspended in human blood (anticoagulated with 50 nM PPACK) and perfused over a collagen I matrix at a venous wall shear rate of 50 s^−1. Under these conditions, breast cancer cells arrest by αvβ3 mediated binding to adherent, thrombus forming platelets. Tumor cell adhesion was quantified by image acquisition at 30 predefined positions during blood flow. Left: representative images of platelet signal (thrombi, green fluorescence) and tumor cell signal (red fluorescence) at identical x,y positions. […]

B1: Bc-12: patient derived human scFv antibody against activated αvβ3 with RGD motif in CDR-H3; cDNA ATCC PTA-6303 (protein)
scFv: MAQVQLVQSGAEVKKPGASVKVSCKASGYTFSNYGITWVRQAPGQGLEWMGWINNGNTHYAQKFQGRVTMTTDTSTSTAYMELRSLRSDDTAVYYCARDPRGDDEPYWGQGTLVTVSSGGGGSGGGGSGGGGSEIVLTQSPLSLPVTLGQPASISCRSSQNLVYSDGNTYLSWFQQRPGQSPRRLIYKVSNRDSGVPDRFSGSGSGTDFTLKISRVEAEDIGVYYCMQGTHWPPRTFGQGTKVEIKRGLGGLVDYKDDDDK
For the molecule B1, the “binding in the presence of Mn2+” value with integrin αvβ3 (0.2 mM Mn^2+) is listed as “greatly enhanced”. Further, the “binding in the presence of Mg2+” value in the test on integrin αvβ3 (1 mM Mg^2+, M21 cells) is recorded as “at the same level as Ca^2+”. Also, the “effect of Ca2+ on Mn2+ enhanced binding” value in the test with integrin αvβ3 (Ca^2+ combined with Mn^2+, M21 cells) is on record as “reduced the enhancing effect of Mn^2+”. For the same molecule, the “reactivity with human tumor cells that express or lack αvβ3” value in the test with integrin αvβ3 (M21, M21-LIIb, UCLA-P3 cells, flow cytometry) is recorded as “reacted only with cells expressing the αvβ3 heterodimer”. In the test on integrin αvβ3 (M21-L cells (no αv integrins)), the “binding to M21-L cells” value is “failed to bind”. Also, the “cation requirement of binding” value with integrin αvβ3 (TBS with or without divalent cations) was “showed a cation dependence”. For the same molecule, the “binding in the presence of Ca2+” value in the test on integrin αvβ3 (physiological Ca^2+ levels (1 mM)) was “measurable”. For the same molecule, the “reactivity with M21-L4 cells” value in the test on integrin αvβ3 (αvβ3 expression restored by transfection) was “did react”. Also, the “viability of matrix deprived cells (apoptosis)” value in test [1] was “resulted in apoptotic cell death”.
